Laboratory results reported in the supplement of paper PMC9233669.
Variants at the floor of the assay were thinned out.

What was measured:
biotinyl-Leu-oxazolone = experiment: self-aminoacylation, catalytic enhancement (BLO) (fold over background); higher = more active; k-Seq, kA / k0A0; sequences stand for … in GGGAAUGGAUCCACAUCUACGAAUUC…UUCACUGCAGACUUGACGAAGCUG
Method in brief: (§1)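 Mutagenized RNA pools with a 21-nt variable region (0.43 μM) were reacted with each biotinyl-aminoacyl-oxazolone at 2–1250 μM for 90 minutes at room temperature, in 50 μL HEPES/NaCl/KCl/MgCl2/CaCl2 buffer containing 5% acetonitrile at pH 6.9–7.0. RNA captured on streptavidin was quantified by triplicate qPCR and by Illumina sequencing. The fraction reacted for each sequence was fit to a pseudo-first-order model with bootstrapping, and catalytic enhancement is the median kA divided by the uncatalyzed rate, taken as the low-activity peak of a bimodal Gaussian fit.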

biotinyl-Trp-oxazolone = experiment: self-aminoacylation, catalytic enhancement (BWO) (fold over background); higher = more active; k-Seq, kA / k0A0; sequences stand for … in GGGAAUGGAUCCACAUCUACGAAUUC…UUCACUGCAGACUUGACGAAGCUG
Method in brief: as §1

biotinyl-Phe-oxazolone = experiment: self-aminoacylation, catalytic enhancement (BFO) (fold over background); higher = more active; k-Seq, kA / k0A0; sequences stand for … in GGGAAUGGAUCCACAUCUACGAAUUC…UUCACUGCAGACUUGACGAAGCUG
Method in brief: as §1

biotinyl-Ile-oxazolone = experiment: self-aminoacylation, catalytic enhancement (BIO) (fold over background); higher = more active; k-Seq, kA / k0A0; sequences stand for … in GGGAAUGGAUCCACAUCUACGAAUUC…UUCACUGCAGACUUGACGAAGCUG
Method in brief: as §1

biotinyl-Val-oxazolone = experiment: self-aminoacylation, catalytic enhancement (BVO) (fold over background); higher = more active; k-Seq, kA / k0A0; sequences stand for … in GGGAAUGGAUCCACAUCUACGAAUUC…UUCACUGCAGACUUGACGAAGCUG
Method in brief: as §1

biotinyl-Met-oxazolone = experiment: self-aminoacylation, catalytic enhancement (BMO) (fold over background); higher = more active; k-Seq, kA / k0A0; sequences stand for … in GGGAAUGGAUCCACAUCUACGAAUUC…UUCACUGCAGACUUGACGAAGCUG
Method in brief: as §1

Sequence	self-aminoacylation (biotinyl-Leu-oxazolone)	self-aminoacylation (biotinyl-Trp-oxazolone)	self-aminoacylation (biotinyl-Phe-oxazolone)	self-aminoacylation (biotinyl-Ile-oxazolone)	self-aminoacylation (biotinyl-Val-oxazolone)	self-aminoacylation (biotinyl-Met-oxazolone)
CCACACUUCAAGCAAACGCUC [Fam1B.1 aminoacylation ribozyme variant]	1.01	1.37	0.677	0.956	0.912	1.41
CUACUUCAAGCAAGCGGUCUG [Fam1A.1 aminoacylation ribozyme variant]	0.958	0.849	0.897	1.12	0.854	0.867
ACUCACCUAGGUCAUCGGGGG [Fam2.2 aminoacylation ribozyme variant]	3.57	4.06	22.1	3.75	3.19	3.42
CCACUUCAAACAAUCGGUCUG [Fam1A.1 aminoacylation ribozyme variant]	2.75	49.3	114	1.51	1.63	1.76
AAGUUUGUUAAUAGUCACAAG [Fam3.1 aminoacylation ribozyme variant]	0.749	0.701	1.16	1.06	0.941	0.982
CUACUUCAAACAAGCGGUCUG [Fam1A.1 aminoacylation ribozyme variant]	0.825	0.693	0.819	0.933	0.871	0.822
CCACAAUUCAAGCAAUCGGUA [Fam1B.1 aminoacylation ribozyme variant]	1.43	1.13	1.33	1.26	1.17	1.19
AUAACCCUGGUCAUCGAGUGG [Fam2.1 aminoacylation ribozyme variant]	7.76	6.21	20.8	3.4	3.38	8.46
AUUACCCUCGUCAUCGAGUGC [Fam2.1 aminoacylation ribozyme variant]	1.17	0.477	1.29	0.96	0.864	0.914
AUUCACCUAUGUCAUCGGUUG [Fam2.2 aminoacylation ribozyme variant]	0.919	0.892	0.455	0.902	0.872	0.874
AAGUUUGCUAAUAGGCGCAAA [Fam3.1 aminoacylation ribozyme variant]	1.74	1.48	1.74	1.46	1.1	1.63
CUACAUCAAACAAUCGGUCGG [Fam1A.1 aminoacylation ribozyme variant]	1.16	0.994	1.36	0.773	0.981	0.954
AUUACGCUGGUCAUCUAGUGA [Fam2.1 aminoacylation ribozyme variant]	5.42	6.02	27.3	3.21	2.89	4.83
AAGCUUGCUAAUUGUCGCAAG [Fam3.1 aminoacylation ribozyme variant]	2.25	1.99	2.23	1.96	1.57	2.38
AUACACCUAGGCCAUCGGGUG [Fam2.2 aminoacylation ribozyme variant]	3.51	3.66	12.9	2.73	2.32	2.42
CUACUUCCAACAAUCGGUUUG [Fam1A.1 aminoacylation ribozyme variant]	0.645	0.678	0.87	0.747	0.76	0.713
CAUUUUGCUAAUAGUCGCAAG [Fam3.1 aminoacylation ribozyme variant]	1.07	0.635	0.981	1.3	1.04	1.01
AAAUUUGCUAAUAGUGGCAAG [Fam3.1 aminoacylation ribozyme variant]	0.7	0.533	0.608	1.01	0.74	0.697
AAGUUUGGUGAUAGUCGCAAG [Fam3.1 aminoacylation ribozyme variant]	1.43	1.42	2.03	1.36	1.23	1.51
CUACUUCUAACAAUCAGUCUG [Fam1A.1 aminoacylation ribozyme variant]	0.603	0.502	0.82	0.663	0.689	0.524
AUUACCCAGGUCAUCGAGUGA [Fam2.1 aminoacylation ribozyme variant]	6.08	6.89	22.8	3.21	3.55	5.79
CCACACUUCAAGCAAUGGUUC [Fam1B.1 aminoacylation ribozyme variant]	0.596	0.678	0.776	0.619	0.574	0.61
CUACUUCAAACUAUCCGUCUG [Fam1A.1 aminoacylation ribozyme variant]	0.936	0.852	0.844	0.955	1.08	0.889
AUUCACCUAGUUUAUCGGGUG [Fam2.2 aminoacylation ribozyme variant]	3.48	4.61	21.2	2.39	2.61	3.75
CUACUUAAAACAAUCGGUAUG [Fam1A.1 aminoacylation ribozyme variant]	0.53	0.339	0.513	0.556	0.574	0.55
AAGCUUGCUAGUAGUCGCAAG [Fam3.1 aminoacylation ribozyme variant]	1.43	0.908	2.3	1.48	1.33	1.89

Sequence	self-aminoacylation (biotinyl-Leu-oxazolone)	self-aminoacylation (biotinyl-Trp-oxazolone)	self-aminoacylation (biotinyl-Phe-oxazolone)	self-aminoacylation (biotinyl-Ile-oxazolone)	self-aminoacylation (biotinyl-Val-oxazolone)	self-aminoacylation (biotinyl-Met-oxazolone)
AAGUUUGCUAAAACUCGCAAG [Fam3.1 aminoacylation ribozyme variant]	0.998	0.796	0.521	0.916	0.821	0.668
CUACUCCAAACAAUCGGUCUA [Fam1A.1 aminoacylation ribozyme variant]	0.746	1.05	2.18	0.767	0.808	0.638
AUUACCCUGGACAUCGAAUGA [Fam2.1 aminoacylation ribozyme variant]	0.96	0.378	0.708	1.23	0.895	0.846
AUUACACUGGUCUUCGAGUGA [Fam2.1 aminoacylation ribozyme variant]	4.42	6.04	18.8	2.75	2.87	3.75
UUUCAUCUAGGUCAUCGGGUG [Fam2.2 aminoacylation ribozyme variant]	6.45	6.47	33.7	4.37	4.51	5.04
CAGUUUGCUAAUAGUCUCAAG [Fam3.1 aminoacylation ribozyme variant]	1.09	0.993	1.71	0.951	0.829	0.711
AAGUUUGCUAAUAGUCGCAGG [Fam3.1 aminoacylation ribozyme variant]	1.38	1.45	2.2	1.29	1.31	1.31
CUACUUCAAAGAAUCGGUCUG [Fam1A.1 aminoacylation ribozyme variant]	0.883	4.78	6.52	0.777	0.76	0.759
AAGUUUGCUCAUAGCCGCAAG [Fam3.1 aminoacylation ribozyme variant]	0.719	0.78	1.35	0.88	0.895	0.891
AUUCACCUAGAUCAUCGAGUG [Fam2.2 aminoacylation ribozyme variant]	1.64	0.729	1.68	1.14	1.32	1.33
AUUCACCCAGGACAUCGGGUG [Fam2.2 aminoacylation ribozyme variant]	2.83	3.3	30.2	2.97	3.27	2.8
AUUACCGUGUUCAUCGAGUGA [Fam2.1 aminoacylation ribozyme variant]	6.23	8.08	20.2	3.72	3.92	6.78
CCACGCUUCCAGCAAUCGGUC [Fam1B.1 aminoacylation ribozyme variant]	1.05	1.12	0.836	1.11	1.11	0.936
GUUACCCUGGUAAUCGAGUGA [Fam2.1 aminoacylation ribozyme variant]	10.5	13.9	58.5	4.93	4.77	10.7
AUUCGCCAAGGUCAUCGGGUG [Fam2.2 aminoacylation ribozyme variant]	14.7	11	91.8	7.65	6.69	10.7
AUUACCCUGGGCAGCGAGUGA [Fam2.1 aminoacylation ribozyme variant]	8.78	9.57	34.6	5.87	5.64	9.21
AACCACCUAGGUCAUCGGGUG [Fam2.2 aminoacylation ribozyme variant]	4.62	6.68	28.8	3.78	4.48	5.6
CUACACUUCAAGCAAGCGGUC [Fam1B.1 aminoacylation ribozyme variant]	0.772	0.541	0.583	0.719	0.637	0.62
CCACACUUCCACCAAUCGGUC [Fam1B.1 aminoacylation ribozyme variant]	0.643	0.847	0.478	0.908	0.962	0.51
AUUCACCUAGGUCAUCGGAUU [Fam2.2 aminoacylation ribozyme variant]	0.837	1.19	0.438	0.872	0.864	0.853
AAUCACGUAGGUCAUCGGGUG [Fam2.2 aminoacylation ribozyme variant]	4.02	4.86	30.4	3.09	3.77	3.19
AUUCACAUAGGUCAUCGCGUG [Fam2.2 aminoacylation ribozyme variant]	17.6	12.1	108	7.23	7.84	14
AUUCACCUAGGUCCUCGGGUA [Fam2.2 aminoacylation ribozyme variant]	1.71	3	1.16	2.44	2.39	2.26
CCCCACUUCAAGAAAUCGGUC [Fam1B.1 aminoacylation ribozyme variant]	1.81	9.76	11.6	1.36	1.42	1.17
UUGACCCUGGUCAUCGAGUGA [Fam2.1 aminoacylation ribozyme variant]	19.1	18.7	129	7.37	7.21	19.9
